Patent US20090081197A1 (PALATIN TECHNOLOGIES, published 2009)
Like-named read-outs stand apart in the source and are kept apart here. Starred links: 1 amine or outer side, 2 acyl side, 3 side chain; linkers in the order of their positions; H or OH if unused. Non-standard residues stand in square brackets, D forms with d. No end group written: not given here. *: point of attachment. Thr(Bzl) = O-benzyl-threonine, C[C@@H](OCc1ccccc1)[C@H](N[*:1])C(=O)[*:2]; Ser(Bzl) = O-benzyl-serine, O=C([C@H](COCc1ccccc1)N[*:1])[*:2]; dPhe(4-Cl) = N[C@H](Cc1ccc(Cl)cc1)C(=O)O; Heptanoyl = CCCCCCC(=O)*; Ahp = NCCCCCCC(=O)O

B1: NH2-(CH2)6-C(=O)-Ser(Bzl)-D-Phe(4-Cl)-Arg-Trp-Ala-NH2 (peptide)
peptide: [Ahp][Ser(Bzl)][dPhe(4-Cl)]RWA-NH2
modifications: N-terminus assumed
SMILES: C[C@H](NC(=O)[C@H](Cc1c[nH]c2ccccc12)NC(=O)[C@H](CCCNC(=N)N)NC(=O)[C@@H](Cc1ccc(Cl)cc1)NC(=O)[C@H](COCc1ccccc1)NC(=O)CCCCCCN)C(N)=O
notes: also called Compound No. 15
B2: Heptanoyl-Thr(Bzl)-D-Phe(4-Cl)-Arg-Trp-NH2 (peptide)
peptide: Heptanoyl-[Thr(Bzl)][dPhe(4-Cl)]RW-NH2
SMILES: CCCCCCC(=O)N[C@H](C(=O)N[C@H](Cc1ccc(Cl)cc1)C(=O)N[C@@H](CCCNC(=N)N)C(=O)N[C@@H](Cc1c[nH]c2ccccc12)C(N)=O)[C@@H](C)OCc1ccccc1
notes: also called Compound No. 23

What was measured:
[1] = molecular target: T1, human melanocortin 4 receptor (human, UniProt P32245 1-332); experiment: radioligand competition, [I125]-NDP-α-MSH, hMC4-R membranes
T1 construct: whole, on cells; cAMP assays used whole cells; also called hMC4-R; MC4-R
T1 sequence (P32245 whole entry): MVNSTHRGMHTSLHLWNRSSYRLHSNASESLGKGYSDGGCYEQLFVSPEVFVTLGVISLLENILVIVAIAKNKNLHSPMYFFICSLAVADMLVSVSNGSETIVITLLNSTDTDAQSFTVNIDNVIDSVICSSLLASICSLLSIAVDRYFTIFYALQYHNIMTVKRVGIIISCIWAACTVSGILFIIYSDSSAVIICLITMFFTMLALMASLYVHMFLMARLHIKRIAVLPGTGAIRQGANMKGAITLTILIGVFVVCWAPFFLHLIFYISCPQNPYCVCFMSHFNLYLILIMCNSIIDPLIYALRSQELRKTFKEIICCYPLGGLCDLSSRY

[2] = molecular target: T2, human melanocortin 5 receptor (human, UniProt P33032 1-325); experiment: radioligand competition, [I125]-NDP-α-MSH, hMC5-R membranes
T2 construct: whole, on cells; also called hMC5-R; MC5-R
T2 sequence (P33032 whole entry): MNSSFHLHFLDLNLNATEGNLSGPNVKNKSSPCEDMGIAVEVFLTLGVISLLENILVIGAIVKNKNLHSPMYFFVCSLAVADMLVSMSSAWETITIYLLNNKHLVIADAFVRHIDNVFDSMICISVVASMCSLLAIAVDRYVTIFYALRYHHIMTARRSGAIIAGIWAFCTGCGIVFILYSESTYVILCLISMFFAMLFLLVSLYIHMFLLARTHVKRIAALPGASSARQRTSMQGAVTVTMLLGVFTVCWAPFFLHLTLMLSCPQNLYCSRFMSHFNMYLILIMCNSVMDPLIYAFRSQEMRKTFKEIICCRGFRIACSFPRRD

[3] = molecular target: T3, human melanocortin 3 receptor (human, UniProt P41968 1-323); experiment: radioligand competition, [I125]-NDP-α-MSH, hMC3-R membranes
T3 construct: whole, on cells; also called hMC3-R; MC3-R
T3 sequence (P41968 whole entry): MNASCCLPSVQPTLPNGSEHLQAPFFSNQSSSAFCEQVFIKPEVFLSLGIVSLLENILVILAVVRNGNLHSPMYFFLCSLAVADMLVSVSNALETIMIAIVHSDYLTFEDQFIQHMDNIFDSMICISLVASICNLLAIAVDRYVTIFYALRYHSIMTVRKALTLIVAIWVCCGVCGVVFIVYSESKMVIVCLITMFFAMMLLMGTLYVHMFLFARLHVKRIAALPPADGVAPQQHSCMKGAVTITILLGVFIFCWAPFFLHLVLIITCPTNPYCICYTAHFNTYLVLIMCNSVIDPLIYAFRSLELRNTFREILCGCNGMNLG

[4] = molecular target: T1, human melanocortin 4 receptor; experiment: cell-based or functional assay
[5] = molecular target: T1, human melanocortin 4 receptor; experiment: cell-based or functional assay; remark: listed apart in the source
[6] = molecular target: T4, MC1-R of B-16 mouse melanoma cells (mouse, UniProt Q01727 1-315); experiment: radioligand competition, [I125]-NDP-α-MSH, B-16 membranes
T4 construct: whole, on cells; also called B16-F10 (MC1-R)
T4 sequence (Q01727 whole entry): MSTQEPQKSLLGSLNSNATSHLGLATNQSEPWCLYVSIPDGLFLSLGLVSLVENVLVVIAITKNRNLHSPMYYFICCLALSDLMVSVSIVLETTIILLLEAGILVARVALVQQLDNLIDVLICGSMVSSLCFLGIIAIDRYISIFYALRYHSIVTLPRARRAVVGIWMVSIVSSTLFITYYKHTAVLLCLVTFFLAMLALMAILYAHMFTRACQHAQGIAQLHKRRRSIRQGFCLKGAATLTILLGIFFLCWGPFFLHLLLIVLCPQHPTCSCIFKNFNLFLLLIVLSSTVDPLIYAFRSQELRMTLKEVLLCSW

[7] = molecular target: T4, MC1-R of B-16 mouse melanoma cells; experiment: as above; remark: listed apart in the source
[8] = molecular target: T1, human melanocortin 4 receptor; experiment: cell-based or functional assay; remark: listed apart in the source
[9] = molecular target: T3, human melanocortin 3 receptor; experiment: radioligand competition, [I125]-NDP-α-MSH, hMC3-R membranes; remark: listed apart in the source
[10] = molecular target: T2, human melanocortin 5 receptor; experiment: radioligand competition, [I125]-NDP-α-MSH, hMC5-R membranes; remark: listed apart in the source
[11] = molecular target: T1, human melanocortin 4 receptor; experiment: radioligand competition, [I125]-NDP-α-MSH, hMC4-R membranes; remark: listed apart in the source

Row | Binder | Ki [1] [nM] | Ki [2] [nM] | Ki [3] [nM] | EC50, normal system (cAMP) [4] [µM] | intrinsic activity, normal system (cAMP) [4] | EC50 (nM) (cAMP), High Receptor Density System [5] | Ki [6] [nM] | Ki [7] [nM] | EC50 (nM) (cAMP), High Receptor Density System [8] | Ki [9] [nM] | Ki [10] [nM] | EC50 (nM), normal system (cAMP) [4] [nM] | Ki [11] [nM]
1 | B1 | 2 | 112 | 35 | > 1 | < 0.1 | 55 | 142 |  |  |  |  |  | 
2 | B2 |  |  |  |  | 0.4 |  |  | 747 | 184 | 374 | 292 | > 1000 | 21
